Two substances from paper PMC12157500 can be followed below.

Test [1] concerns the target 57CrGPDH705-FLAG, di-domain glycerol-3-phosphate dehydrogenase from Chlamydomonas reinhardtii with 30 additional N-terminal amino acids (Chlamydomonas reinhardtii). In words: SEC. (In general: Size exclusion chromatography separates by hydrodynamic size, large species first.)
For test [2], the target named is 87CrGPDH705-FLAG, di-domain glycerol-3-phosphate dehydrogenase from Chlamydomonas reinhardtii with the chloroplast targeting sequence removed (Chlamydomonas reinhardtii). The test is described as follows: SEC.

What is called stoichiometry N is the number of molecules, sites or subunits per partner or assembly. Substance “57CrGPDH705-FLAG, di-domain glycerol-3-phosphate dehydrogenase from Chlamydomonas reinhardtii with 30 additional N-terminal amino acids (enzyme)” returned a stoichiometry N in test [1] of 5.

Take “87CrGPDH705-FLAG, di-domain glycerol-3-phosphate dehydrogenase from Chlamydomonas reinhardtii with the chloroplast targeting sequence removed (enzyme)”: the stoichiometry N in test [2] stood at 4.
